According to the supplement of paper PMC10567573:
± gives the standard deviation.

Assay: protein stability index of a GFP-peptide fusion (GPS, HEK-293T) (PSI 1-6); higher = more stable
[1] = treatment: DMSO, c terminus: a fixed tail appended
[2] = treatment: MLN4924 1 uM, 8 h, c terminus: a fixed tail appended
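Note: 24-mer peptide tiles fused after GFP, lentivirally expressed, FACS-sorted into six equal bins by GFP/DsRed ratio, decoded by Illumina sequencing, PSI is the read-weighted mean bin number.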

Row | Sequence | protein stability index [1] | protein stability index [2] | protein stability index (treatment: DMSO, c terminus: native) | protein stability index (treatment: MLN4924 1 uM, 8 h, c terminus: native)
1 | VDDLSVEWDAMGGKVQDIKAREKD [FSD1] | 5.41 ± 0.33 | 5.5 ± 0.43 |  | 
2 | VDTLTFQSQSLRDRARRFEEALRK [MTUS2] | 4.08 ± 0.2 | 4.14 ± 0.22 |  | 
3 | VELPIVDSLHPRPPYLPLAVPEDL [FUT8] | 4.24 ± 0.31 | 4.54 ± 0.22 |  | 
4 | VENGDFNWIVPGKFLAFSGPHPKS [CDC14A] | 2.76 ± 0.41 | 2.92 ± 0.43 |  | 
5 | VGDALEEVLSKALSQRTITVGVYE [GADD45A] | 2.54 ± 0.19 | 2.47 ± 0.56 |  | 
6 | VGKGEILASLQDGAAESPYGHPAG [RAB40B] | 4.66 ± 0.24 | 4.76 ± 0.2 |  | 
7 | VGSVSVDCGPSRADRCSPKEDQAW [FBXO34] | 3.66 ± 0.25 | 4.06 ± 0.33 |  | 
8 | VHGIRSVGTAAVNMCLVATGGADA [IMPA1] | 2.78 ± 0.35 | 2.93 ± 0.39 |  | 
9 | VIDILPNCVSSVYLYYDPDYSFLS [ATE1] | 3.35 ± 0.49 | 3.1 ± 0.77 |  | 
10 | VKMFYSFQDKRNLYLIMEFLPGGD [STK38L] | 3.11 ± 0.85 | 3.29 ± 0.4 |  | 
11 | VKYPELVLEHSLDREEEAIHHLVL [PCDHGA10] | 2.6 ± 0.096 | 2.63 ± 0.36 |  | 
12 | VLGGNLQGGELVVAYPYDLVRSPW [CPXM2] | 2.13 ± 0.12 | 2.48 ± 0.48 |  | 
13 | VLKYFSHYMEENLMDGGDLPSVTD [PLK2] | 2.75 ± 0.52 | 2.67 ± 0.64 |  | 
14 | VLLGWTLHYFPFFLMGRVLYFHHY [POMT2] | 2.96 ± 0.29 | 2.91 ± 0.42 |  | 
15 | VLNVAGEAGGKQKAVEEELDAEDR [SLC6A17] | 5.72 ± 0.17 | 5.69 ± 0.16 |  | 
16 | VMYTIHMGCHGFRDPFECNMCGYH [IKZF1] | 2 ± 0.45 | 2.4 ± 1.3 |  | 
17 | VNLQHLDLLNNKLVTLPVSFAQLK [LRRC59] | 2.12 ± 0.23 | 2.31 ± 0.3 |  | 
18 | VNRFGTYPALASKNGKKWEILNFN [ACSBG2] | 2.81 ± 0.28 | 2.71 ± 0.49 |  | 
19 | VNYTQGLWEKVMPSRYAAIYNGGV [SLC19A2] | 2.33 ± 0.18 | 2.21 ± 0.47 |  | 
20 | VPAQKFSALTFLRVDQDKDKDCSL [SMOC2] | 4.19 ± 0.3 | 4.52 ± 0.31 |  | 
21 | VPHWINSNTLGFGTEQAPYGMQTQ [ETS2] | 2.58 ± 0.41 | 2.88 ± 0.22 |  | 

Row | Sequence | protein stability index [1] | protein stability index [2] | protein stability index (treatment: DMSO, c terminus: native) | protein stability index (treatment: MLN4924 1 uM, 8 h, c terminus: native)
22 | VPVSFIFIFTFVKKKKIGFYFEVC [PCDHGA10] |  | 1.82 ± 0.39 |  | 
23 | VQGIGIPLVTAIEIVSIWILSFIL [EDNRA] | 3.02 ± 0.63 | 2.42 ± 0.49 |  | 
24 | VRFDGYVIDGATALWCAAGAGHFE [FEM1B] | 2.91 ± 0.6 | 2.92 ± 0.64 |  | 
25 | VSAEGSHPDPAPFCADNPSELPPP [DVL3] | 5.25 ± 0.27 | 5.32 ± 0.18 |  | 
26 | VSGGSRSLNMSRRDSESTRHDSET [PHTF1] | 5.25 ± 0.26 | 5.5 ± 0.14 |  | 
27 | VTEHPLELIRVEVEILDLNDNSPS [PCDHGC5] | 2.92 ± 0.29 | 3 ± 0.41 |  | 
28 | VTSVSIELEKNFSNFPRQYFALRK [TRIM39] | 2.47 ± 0.25 | 2.5 ± 0.15 |  | 
29 | VVACDFSPDGALLATASYDTRVYI [WSB1] | 3.41 ± 0.6 | 2.74 ± 0.83 |  | 
30 | VVRYLLEQRADPNAKAHCGATALH [FEM1B] | 2.23 ± 0.21 | 2.34 ± 0.18 |  | 
31 | VYLSPRDDGYSTKDSYSSRDYPSS [RBMX] | 3.21 ± 0.27 | 3.38 ± 0.43 |  | 
32 | VYSVSVDQKERCIIVRTTNKKYYK [DPCD] | 2.14 ± 0.14 | 2.21 ± 0.38 |  | 
33 | WEYMHSPSENSKEAEILEVLRHPR [CPOX] | 3.99 ± 0.12 | 4.07 ± 0.32 |  | 
34 | WLQNTHVYSWPKNKKNILLRLLRE [TRAF3IP2] | 2.08 ± 0.58 | 2.38 ± 0.42 |  | 
35 | WLYYYAYKDFLWFFSKRFKSAAML [SOAT1] | 2.15 ± 0.34 | 2.29 ± 0.44 |  | 
36 | WPGASGSAQSLDRLGIMGAGLGA [ATP23] |  |  | 2.55 ± 0.26 | 2.43 ± 0.37
37 | WTDSEVDSSCSGQPIHLWQFLKEL [SPDEF] | 2.93 ± 0.24 | 3.1 ± 0.39 |  | 
38 | WTLQRRLTRLRTASGHEPGGSAVC [PLEKHN1] | 3 ± 0.23 | 3.06 ± 0.22 |  | 
39 | WVGTGLAAALAGLVGLATAAFGHV [CPOX] | 2.13 ± 0.37 | 2.16 ± 0.3 |  | 
40 | YAHQMVRTDSREQKLDAFLQPLSK [MLH1] | 2.98 ± 0.3 | 3.35 ± 0.35 |  | 
41 | YARQHCPLKNPTFLDYVRPRSWTC [SOAT1] | 2.12 ± 0.46 | 2.14 ± 0.53 |  | 
42 | YDGYRLRVEFPRSGRGTGRGGGGG [SRSF1] | 3.81 ± 0.26 | 3.99 ± 0.25 |  | 

Row | Sequence | protein stability index [1] | protein stability index [2] | protein stability index (treatment: DMSO, c terminus: native) | protein stability index (treatment: MLN4924 1 uM, 8 h, c terminus: native)
43 | YEADCLAAAYGGKAAPAAPPAARP [CEBPB] | 4.49 ± 0.15 | 4.6 ± 0.2 |  | 
44 | YETVAAATSESTTVEPGKLDVGAT [DRICH1] | 5.36 ± 0.2 | 5.43 ± 0.32 |  | 
45 | YFATFYSCTPRMNRRMVGPDVIPL [FAM189A2] | 2.72 ± 0.27 | 2.54 ± 0.55 |  | 
46 | YGHDYPRAAYQQVIQPALPGQPLP [TRAF3IP2] | 2.55 ± 0.71 | 3.25 ± 0.69 |  | 
47 | YHPVKIGDLFNGRYHVIRKLGWGH [SRPK2] | 2.79 ± 0.55 | 2.24 ± 0.22 |  | 
48 | YKPVVLLQGLSLIVTWFMLLYAQG [SLC19A2] | 2.94 ± 0.42 | 3.02 ± 0.29 |  | 
49 | YLTVVFEHDAWFIFFMAAFAFSNG [SLC29A1] | 3.18 ± 0.41 | 2.92 ± 0.59 |  | 
50 | YNSSRFGEGVERELFVREPTGRLP [MYORG] | 3.62 ± 0.22 | 3.73 ± 0.43 |  | 
51 | YPNYEFISDNSISWSAGLHNRYTE [FUT8] | 2.51 ± 0.1 | 2.72 ± 0.36 |  | 
52 | YPTSDQEGDPGSKQPRKKRGRYRQ [LCOR] | 5.3 ± 0.23 | 5.45 ± 0.27 |  | 
53 | YQKAAEEVEAKFKRYESHPVCADL [CHCHD3] | 4.26 ± 0.14 | 4.25 ± 0.28 |  | 
54 | YRHVMLPKDIAKLVPKTHLMSESE [CKS1B] | 3.75 ± 0.32 | 3.85 ± 0.23 |  | 
55 | YSCACLASGSVLRLVDAVLGAEIR [HDAC6] | 3 ± 0.68 | 2.89 ± 0.66 |  | 
56 | YSQASELPTDAVDCMSRELVSLTS [FBXO34] | 4.03 ± 0.14 | 4.11 ± 0.11 |  | 
57 | YSSGEFSSGRKWGDDAPKEEVDTG [INTS4] | 3.1 ± 0.48 | 3.97 ± 0.56 |  | 
58 | YSSQLSQVQSLITNVESQLAEIRC [KRT34] | 3.07 ± 0.21 | 3.24 ± 0.24 |  | 
59 | YSSSKGSLRLCDMRAAALCDKHSK [PPP2R2C] | 2.53 ± 0.8 | 3.11 ± 0.71 |  | 
60 | YVKFDAVSGDYYPIIYFNDYWNLQ [CLPTM1] | 2.78 ± 0.5 | 2.8 ± 0.64 |  | 
61 | YVVLAYTLPPASRFIIIFEQIRFV [SOAT1] | 3.27 ± 0.48 | 2.93 ± 0.53 |  | 
62 | YYPSGDAFASGSDDATCRLYDLRA [GNB5] | 2.94 ± 0.33 | 3.38 ± 0.34 |  | 
63 | YYSDKYDDEEFEYRHVMLPKDIAK [CKS1B] | 3.81 ± 0.12 | 3.91 ± 0.14 |  | 
